For 11 variants, response results are on record in article PMC8013792, “Bacterial protein domains with a novel Ig‐like fold target human CEACAM receptors” (The EMBO Journal, 2021).

To fix the notation:
B1: IgSF (IgI3) domain of β protein, recombinant, biotinylated [modified: biotin, C-terminal] [Streptococcus agalactiae (GBS)] / recombinant CEACAM1 N-terminal domain, unglycosylated, 6xHis tagged [human] (parent complex)
chain 1: ANENNQQKIELTVSPENITVYEGEDVKFTVTAKSDSKTTLDFSDLLTKYNPSVSDRISTNYKTNTDNHKIAEITIKNLKLNESQTVTLKAKDDSGNVVEKTFTITVQKKEEKQLPSTGGS
chain 2: MAQLTTESMPFNVAEGKEVLLLVHNLPQQLFGYSWYKGERVDGNRQIVGYAIGTQQATPGPANSGRETIYPNASLLIQNVTQNDTGFYTLQVIKSDLVNEEATGQFHVY
B2: recombinant CEACAM1 N-terminal domain, unglycosylated, 6xHis tagged [human] / IgSF (IgI3) domain of β protein, recombinant, biotinylated [modified: biotin, C-terminal] [Streptococcus agalactiae (GBS)] (parent complex)
chain 1: B1 chain 2
chain 2: B1 chain 1

The variants in one assay derive from B1. The experiment in a line: flow cytometry on coated dynabeads; parent: 800; read off a plot. In general terms: Flow cytometry measures light scatter and fluorescence of single cells or particles in a stream.
Turning to chain 2 F31A, the response is about 390 Geometric MFI. Still for that read-out and setting: to chain 2 N99A belongs about 540 Geometric MFI; to chain 2 I93A, about 240 Geometric MFI; to chain 2 L97A, about 450 Geometric MFI. On to chain 2 Q46A, for which the response was about 510 Geometric MFI. chain 2 V98A: the response is about 590 Geometric MFI.

Consider chain 2 Q91A, for which the response is about 230 Geometric MFI.

In another assay the parent is B2. The assay can be described thus: flow cytometry on coated dynabeads; parent: 390; read off a plot.
Consider chain 2 L46A, for which the response is about 200 Geometric MFI. Take chain 2 D55A: the response was about 340 Geometric MFI. Take chain 2 F42A: the response is about 750 Geometric MFI. Regarding chain 2 V53A, the response is about 280 Geometric MFI.
